Test results published in paper PMC4878094.
Values belong to the substance of their own block, whether it stands above or below them.

Assays:
Test in all cases: single-filament TIRF microscopy of microtubule growth
[1] = target: recombinant α/βIIB-tail-III tubulin heterodimer (human) (UniProt P68363)
[2] = target: recombinant α/βIII-tail-IIB tubulin heterodimer (human) (UniProt P68363)
[3] = target: recombinant α/βIIB tubulin heterodimer (human) (UniProt P68363)

- koff [1]: 5.5 s⁻¹
- kon [1]: 2e+06 M⁻¹ s⁻¹
Substance: recombinant α/βIIB-tail-III tubulin heterodimer (from UniProt P68363-1 1-451; Q9BVA1 1-427; Q13509 428-450) (complex)

- koff [2]: 2.4 s⁻¹
- kon [2]: 1.8e+06 M⁻¹ s⁻¹
Substance: recombinant α/βIII-tail-IIB tubulin heterodimer (from UniProt P68363-1 1-451; Q13509 1-427; Q9BVA1 428-445) (complex)

- koff [3]: 2.6 s⁻¹
- kon [3]: 1.9e+06 M⁻¹ s⁻¹
Substance: recombinant α/βIIB tubulin heterodimer (from UniProt P68363-1 1-451; Q9BVA1 1-445) (complex)
